Assay results taken from patent US6468985B1, “Retinoblastoma protein-interacting zinc finger proteins” (The Burnham Institute, priority 1994, dated 2002).

Columns and labels:
wild-type Rb = molecular target: T1, wild-type Rb (Homo sapiens, UniProt P06400); test: binding of GST-RIZ (245-573) to 35S-labeled Rb, immunoprecipitation with anti-RIZ antiserum
T1 construct: Wild-type (wt) full length Rb (A9); made in house; host or cells: in vitro transcription/translation
T1 sequence (P06400 1-928): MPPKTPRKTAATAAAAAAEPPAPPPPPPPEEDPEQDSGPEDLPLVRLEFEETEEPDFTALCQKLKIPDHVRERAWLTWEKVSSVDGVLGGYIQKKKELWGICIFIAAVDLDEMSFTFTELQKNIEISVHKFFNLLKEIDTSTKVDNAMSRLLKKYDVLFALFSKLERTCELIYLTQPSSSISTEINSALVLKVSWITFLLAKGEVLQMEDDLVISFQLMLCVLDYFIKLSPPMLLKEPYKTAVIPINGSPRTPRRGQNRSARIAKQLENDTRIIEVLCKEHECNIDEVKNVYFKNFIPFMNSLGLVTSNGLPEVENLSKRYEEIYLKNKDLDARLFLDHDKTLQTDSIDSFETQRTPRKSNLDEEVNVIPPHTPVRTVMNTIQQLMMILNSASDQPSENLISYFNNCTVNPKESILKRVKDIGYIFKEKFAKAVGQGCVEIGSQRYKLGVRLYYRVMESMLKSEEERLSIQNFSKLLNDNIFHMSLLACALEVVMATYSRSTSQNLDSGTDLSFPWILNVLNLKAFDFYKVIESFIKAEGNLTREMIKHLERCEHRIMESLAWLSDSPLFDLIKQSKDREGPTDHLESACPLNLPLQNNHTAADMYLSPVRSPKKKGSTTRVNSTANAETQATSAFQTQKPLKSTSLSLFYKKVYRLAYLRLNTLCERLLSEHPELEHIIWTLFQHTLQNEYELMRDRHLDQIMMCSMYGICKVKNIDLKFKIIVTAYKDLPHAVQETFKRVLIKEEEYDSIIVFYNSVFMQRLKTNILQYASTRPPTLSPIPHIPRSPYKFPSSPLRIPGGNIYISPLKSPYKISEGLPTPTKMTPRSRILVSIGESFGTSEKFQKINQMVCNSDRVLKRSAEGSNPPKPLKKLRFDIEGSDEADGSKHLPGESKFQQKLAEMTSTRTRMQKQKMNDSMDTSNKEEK
Method: (§1) The 56 kD Rb fragment that binds to RIZ is a C-terminal fragment containing the Rb pocket binding region and a C-terminal extension. To further define the portion of 56 kD Rb that binds to RIZ, several Rb mutant polypeptides were tested for binding to RIZ. Mutant and full length Rb were cloned and in vitro transcribed/translated as described previously (Huang et al., supra, 1990). H209 is a point mutation resulting in a single amino acid change in Rb that was identified in the small cell lung cancer H209 cell line (American Type Culture Collection (ATCC) #HTB 172). The various Rb forms were tested for binding to glutathionine S-transferase (GST) fused to a fragment of RIZ from amino acid position 245-573 (GST-RIZ (245-573)). This RIZ fragment contains all of the E1A motifs related to binding Rb and was constructed by cloning a Stu I-Hpa I RIZ fragment (nucleotide 795-3068) into vector pBSK+ to make pBSK+SH. An Eco RI fragment was removed from pBSK+SH and ligated into pGEX-KG to produce vector pKG7.1S containing GST-RIZ (245-573).
(§2) The binding between purified GST-RIZ (245-573) and the above radiolabeled Rb wild-type and deletion mutants was determined by immunoprecipitation with an anti-RIZ antiserum followed by SDS-PAGE and autoradiography. […]

[1] = tested on: Rb having a deletion within the pocket; test: binding of GST-RIZ (245-573) to 35S-labeled Rb pocket deletion mutants, immunoprecipitation with anti-RIZ antiserum
Method: as §1, §2

RIZ = molecular target: T2, RIZ (Rattus norvegicus, UniProt Q63755); test: binding of anti-RIZ antiserum / anti-ce1 antibody to RIZ and RIZ truncation mutants; details: addition of the immunogen
T2 construct: made in house; host or cells: in vitro transcription/translation (rabbit reticulocyte lysate)
T2 sequence (Q63755 245-883): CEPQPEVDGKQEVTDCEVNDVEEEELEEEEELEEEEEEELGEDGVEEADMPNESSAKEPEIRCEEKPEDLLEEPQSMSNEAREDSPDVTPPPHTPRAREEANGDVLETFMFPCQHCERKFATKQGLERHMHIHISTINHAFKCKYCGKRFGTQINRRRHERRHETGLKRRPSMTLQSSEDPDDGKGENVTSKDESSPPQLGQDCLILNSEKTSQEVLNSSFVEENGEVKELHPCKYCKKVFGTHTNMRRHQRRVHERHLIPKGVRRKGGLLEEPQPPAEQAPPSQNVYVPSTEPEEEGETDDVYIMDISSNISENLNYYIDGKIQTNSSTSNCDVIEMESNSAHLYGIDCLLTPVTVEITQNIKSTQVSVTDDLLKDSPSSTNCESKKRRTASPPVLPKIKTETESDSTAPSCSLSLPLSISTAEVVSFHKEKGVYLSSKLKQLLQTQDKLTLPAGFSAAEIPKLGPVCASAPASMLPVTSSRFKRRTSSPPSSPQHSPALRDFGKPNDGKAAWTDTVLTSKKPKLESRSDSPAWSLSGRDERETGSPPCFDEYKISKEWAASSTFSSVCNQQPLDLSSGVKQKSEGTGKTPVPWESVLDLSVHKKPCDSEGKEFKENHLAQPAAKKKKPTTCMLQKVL
Method: Anti-RIZ antibodies purified from the E1A affinity column were tested for binding to RIZ and E1A. […] The E1A-affinity purified RIZ antibodies were designated “anti-ce1” for cross reacting E1A antigen.
Anti-ce1 antibodies were tested for binding to various deletion mutants of RIZ and E1A 12S in order to map the location of the ce1 epitope on each molecule.
To evaluate this possibility, an 11 amino acid peptide encompassing residues 310-320 in RIZ (ce1 peptide) [sequence] (SEQ ID NO: 7) and an overlapping 11 amino acid control peptide encompassing residues 304-314 containing the cr2 core motif of RIZ, peptide [sequence] (SEQ ID NO: 6), were synthesized by solid phase peptide synthesis and tested for their ability to block binding between anti-ce1 antibody and RIZ or E1A.

- binding to wild-type Rb (wild-type Rb): showed binding
- binding to three forms of Rb having a deletion within the pocket [1]: failed to bind
- inhibition of anti-RIZ antiserum binding to RIZ (245-883) (RIZ): inhibited
B1: GST-RIZ (245-573): glutathionine S-transferase fused to RIZ fragment a.a. 245-573 containing zinc fingers 1-3 (protein)
chain: CEPQPEVDGKQEVTDCEVNDVEEEELEEEEELEEEEEEELGEDGVEEADMPNESSAKEPEIRCEEKPEDLLEEPQSMSNEAREDSPDVTPPPHTPRAREEANGDVLETFMFPCQHCERKFATKQGLERHMHIHISTINHAFKCKYCGKRFGTQINRRRHERRHETGLKRRPSMTLQSSEDPDDGKGENVTSKDESSPPQLGQDCLILNSEKTSQEVLNSSFVEENGEVKELHPCKYCKKVFGTHTNMRRHQRRVHERHLIPKGVRRKGGLLEEPQPPAEQAPPSQNVYVPSTEPEEEGETDDVYIMDISSNISENLNYYIDGKIQTNSS
modifications: left off: a dimerising Fc or GST
